# Test system: p1
# Assay: p1 copy number by p1-encoded mKate2 fluorescence
# Format: cell-based, S. cerevisiae
# Details: OR-Y24, measured in triplicate
# Protocol: A calibration curve was established to correlate p1 copy number, determined via quantitative PCR (qPCR), with fluorescence of p1-encoded mKate2 (Table 1). Five TP-DNAP1 variants representing a wide range of copy numbers were transformed into ORY24 and passaged until w.t. p1 was displaced. The five OR-Y24 strains were grown to saturation, diluted 1:10,000 to mimic p1 fluctuation tests, and grown in triplicate 100 μL cultures and duplicate 40 mL cultures. 100 μL saturated cultures were subject to fluorescence measurement of mKate2 (ex/em=561 nm/620 nm, bandwidth=15 nm) on a flow cytometer (Invitrogen Attune NxT). Whole-cell DNA extracts were prepared from 40 mL cultures and used as templates for qPCR measurement of p1-encoded leu2 (Q180*), as described previously (Ravikumar et al., 2014). p1-encoded LEU2 was PCR amplified with qPCR-Leu2F and qPCR Leu2R; and genomic LEU3 was PCR amplified with qPCR-Leu3F and qPCR-Leu3R using SyBR Green (Fisher Scientific) master mix.
# To assay p1 copy number for large-scale p1 fluctuation tests, additional replicates of OR-Y24 strains were grown from the 1:10,000 dilution in triplicate and saturated cultures were subject to fluorescence measurement via flow cytometry. Fluorescence measurements were converted to copy number with the linear calibration curve.
# To assay relative p1 copy number for small-scale p1 fluctuation tests, an additional 200 μL culture of OR-Y24 strains were grown from the 1:10,000 dilution. 200 μL saturated cultures were subject to an OD600 measurement and fluorescence measurement of mKate2 (ex/em=588 nm/633 nm), using a microplate reader (TECAN Infinite M200 PRO). A linear relationship was assumed between p1 copy number and OD600-normalized mKate2 fluorescence. Copy numbers were calculated from normalization to a w.t. TP-DNAP1 control.
# For a few large-scale p1 fluctuation tests, p1 copy number was assayed by the method of small scale p1 fluctuation tests (i.e. microplate reader measurement). For these experiments, mutant TP-DNAP1 p1 copy numbers were calculated by normalization to a w.t. TP-DNAP1 control. The copy number of this control was assumed to be the average w.t. TP-DNAP1 copy number from all large-scale p1 fluctuation tests that used flow cytometry measurements.
# TP-DNAP1 plasmids were isolated from these strains and subject to Sanger sequencing. 210 unique variants were identified and the corresponding plasmids were re-transformed into OR-Y24. Transformed strains were passaged in SC-UH until w.t. p1 was displaced, and subject to p1 copy number measurement in triplicate. Four high copy variants were directly subject to qPCR measurements for validation. To test the suppressor activity of the G410H mutation, which yields increased p1 copy number, this amino acid change was added to several low-activity TP-DNAP1 variants. p1 copy number was similarly assayed for these strains.
row,Molecule,Mean fold-increase over w.t. (p1 copy number) [fold]
1,"N681Q, R692I: TP-DNAP1 variant (protein) MDYKDKALNDLRNVYADFDSLPLDFRQILIKDRATLLQKEDVEKKILERQEDAKKYAEYLKQSEIPERISLPNIKRHKGVSISFEETSEDMVLEPRPFIFDGLNIRCFRRETIFSLKNKILNMVKESSSFKNVSRQSVSFMYFKIFNKGKVIASTKSVNIYEDKIDERLEDLCNNFDDVLKKIIDVTYGYESLFVSETYSYVIFYAKSIYFPQPRCVNNWGNNIPNILTFDSFKLFTANKNNVSCIKQCSRFLWQKDFNTLEEMIEYKNGNICIVTPQLHINDVRDIKSFNDIRLYSESPIKTFSVIDNTITYLFYFKEHLGVIFNITKSRHDRRVTKFSPLSKFSDVKNITVCFDIESYFDPEKESNQVNIPFICCASIIYNKVIGNIVDFEGRDCVAQMIEYVVDICGELNISSVELIAHNGGGYDFHYILSSMYNPAAIKNILIRNNSFISFNFAHDGVKFSVKDSYSFLLCSLANASKAFLNEETFKKTDFPHHDLKTADDLYKVYKEWSSVNTEINHVVEKEKLLITSEHIVNFTKNDKSKTLIEWSKDYCRNDVLVLSKVWLEFKNAVEDIFNCELVDQTMTLAGLSYKLFQANMPFDVELRHPNKEDYFNMREALIGGRCISVNGIYKDVLCLDVKSLYPASMAFYDQPYGSFKRVSSRPKDELGIYYVRVTPQRNNKSNFFPIISHNKITYNNFEESTYIAWYTNVDIDIGLSEGHNIEYIPFDSYGNIGYSWSKKGKIFEKYIKDVLYKLKIKYEKQNNKVKRNVIKIIMNSLWGKFAQKWVNFEYFIKSEDDIDFESEEAYKIWDTDFMLIKKIKESTYSSKPIQNGVFTLSWARYHMKSIWDAGAKEGAECIYSDTDSIFVHKEHFKKNAKFMLNGLKVPIIGSEVGQLELECEFDKLLCAGKKQYMGFYTYFQDGKPCIKEKKRFKGIPSNYIIPELYAHLLSGADKEAKIQFLKFRREWGSVKGYIENKTVKAT",1.74
2,R682D: TP-DNAP1 variant (protein) MDYKDKALNDLRNVYADFDSLPLDFRQILIKDRATLLQKEDVEKKILERQEDAKKYAEYLKQSEIPERISLPNIKRHKGVSISFEETSEDMVLEPRPFIFDGLNIRCFRRETIFSLKNKILNMVKESSSFKNVSRQSVSFMYFKIFNKGKVIASTKSVNIYEDKIDERLEDLCNNFDDVLKKIIDVTYGYESLFVSETYSYVIFYAKSIYFPQPRCVNNWGNNIPNILTFDSFKLFTANKNNVSCIKQCSRFLWQKDFNTLEEMIEYKNGNICIVTPQLHINDVRDIKSFNDIRLYSESPIKTFSVIDNTITYLFYFKEHLGVIFNITKSRHDRRVTKFSPLSKFSDVKNITVCFDIESYFDPEKESNQVNIPFICCASIIYNKVIGNIVDFEGRDCVAQMIEYVVDICGELNISSVELIAHNGGGYDFHYILSSMYNPAAIKNILIRNNSFISFNFAHDGVKFSVKDSYSFLLCSLANASKAFLNEETFKKTDFPHHDLKTADDLYKVYKEWSSVNTEINHVVEKEKLLITSEHIVNFTKNDKSKTLIEWSKDYCRNDVLVLSKVWLEFKNAVEDIFNCELVDQTMTLAGLSYKLFQANMPFDVELRHPNKEDYFNMREALIGGRCISVNGIYKDVLCLDVKSLYPASMAFYDQPYGSFKRVSSRPKDELGIYYVRVTPNDNNKSNFFPIRSHNKITYNNFEESTYIAWYTNVDIDIGLSEGHNIEYIPFDSYGNIGYSWSKKGKIFEKYIKDVLYKLKIKYEKQNNKVKRNVIKIIMNSLWGKFAQKWVNFEYFIKSEDDIDFESEEAYKIWDTDFMLIKKIKESTYSSKPIQNGVFTLSWARYHMKSIWDAGAKEGAECIYSDTDSIFVHKEHFKKNAKFMLNGLKVPIIGSEVGQLELECEFDKLLCAGKKQYMGFYTYFQDGKPCIKEKKRFKGIPSNYIIPELYAHLLSGADKEAKIQFLKFRREWGSVKGYIENKTVKAT,1.74
3,Y296K: TP-DNAP1 variant (protein) MDYKDKALNDLRNVYADFDSLPLDFRQILIKDRATLLQKEDVEKKILERQEDAKKYAEYLKQSEIPERISLPNIKRHKGVSISFEETSEDMVLEPRPFIFDGLNIRCFRRETIFSLKNKILNMVKESSSFKNVSRQSVSFMYFKIFNKGKVIASTKSVNIYEDKIDERLEDLCNNFDDVLKKIIDVTYGYESLFVSETYSYVIFYAKSIYFPQPRCVNNWGNNIPNILTFDSFKLFTANKNNVSCIKQCSRFLWQKDFNTLEEMIEYKNGNICIVTPQLHINDVRDIKSFNDIRLKSESPIKTFSVIDNTITYLFYFKEHLGVIFNITKSRHDRRVTKFSPLSKFSDVKNITVCFDIESYFDPEKESNQVNIPFICCASIIYNKVIGNIVDFEGRDCVAQMIEYVVDICGELNISSVELIAHNGGGYDFHYILSSMYNPAAIKNILIRNNSFISFNFAHDGVKFSVKDSYSFLLCSLANASKAFLNEETFKKTDFPHHDLKTADDLYKVYKEWSSVNTEINHVVEKEKLLITSEHIVNFTKNDKSKTLIEWSKDYCRNDVLVLSKVWLEFKNAVEDIFNCELVDQTMTLAGLSYKLFQANMPFDVELRHPNKEDYFNMREALIGGRCISVNGIYKDVLCLDVKSLYPASMAFYDQPYGSFKRVSSRPKDELGIYYVRVTPNRNNKSNFFPIRSHNKITYNNFEESTYIAWYTNVDIDIGLSEGHNIEYIPFDSYGNIGYSWSKKGKIFEKYIKDVLYKLKIKYEKQNNKVKRNVIKIIMNSLWGKFAQKWVNFEYFIKSEDDIDFESEEAYKIWDTDFMLIKKIKESTYSSKPIQNGVFTLSWARYHMKSIWDAGAKEGAECIYSDTDSIFVHKEHFKKNAKFMLNGLKVPIIGSEVGQLELECEFDKLLCAGKKQYMGFYTYFQDGKPCIKEKKRFKGIPSNYIIPELYAHLLSGADKEAKIQFLKFRREWGSVKGYIENKTVKAT,2.28
4,N681F: TP-DNAP1 variant (protein) MDYKDKALNDLRNVYADFDSLPLDFRQILIKDRATLLQKEDVEKKILERQEDAKKYAEYLKQSEIPERISLPNIKRHKGVSISFEETSEDMVLEPRPFIFDGLNIRCFRRETIFSLKNKILNMVKESSSFKNVSRQSVSFMYFKIFNKGKVIASTKSVNIYEDKIDERLEDLCNNFDDVLKKIIDVTYGYESLFVSETYSYVIFYAKSIYFPQPRCVNNWGNNIPNILTFDSFKLFTANKNNVSCIKQCSRFLWQKDFNTLEEMIEYKNGNICIVTPQLHINDVRDIKSFNDIRLYSESPIKTFSVIDNTITYLFYFKEHLGVIFNITKSRHDRRVTKFSPLSKFSDVKNITVCFDIESYFDPEKESNQVNIPFICCASIIYNKVIGNIVDFEGRDCVAQMIEYVVDICGELNISSVELIAHNGGGYDFHYILSSMYNPAAIKNILIRNNSFISFNFAHDGVKFSVKDSYSFLLCSLANASKAFLNEETFKKTDFPHHDLKTADDLYKVYKEWSSVNTEINHVVEKEKLLITSEHIVNFTKNDKSKTLIEWSKDYCRNDVLVLSKVWLEFKNAVEDIFNCELVDQTMTLAGLSYKLFQANMPFDVELRHPNKEDYFNMREALIGGRCISVNGIYKDVLCLDVKSLYPASMAFYDQPYGSFKRVSSRPKDELGIYYVRVTPFRNNKSNFFPIRSHNKITYNNFEESTYIAWYTNVDIDIGLSEGHNIEYIPFDSYGNIGYSWSKKGKIFEKYIKDVLYKLKIKYEKQNNKVKRNVIKIIMNSLWGKFAQKWVNFEYFIKSEDDIDFESEEAYKIWDTDFMLIKKIKESTYSSKPIQNGVFTLSWARYHMKSIWDAGAKEGAECIYSDTDSIFVHKEHFKKNAKFMLNGLKVPIIGSEVGQLELECEFDKLLCAGKKQYMGFYTYFQDGKPCIKEKKRFKGIPSNYIIPELYAHLLSGADKEAKIQFLKFRREWGSVKGYIENKTVKAT,1.75
5,R682P: TP-DNAP1 variant (protein) MDYKDKALNDLRNVYADFDSLPLDFRQILIKDRATLLQKEDVEKKILERQEDAKKYAEYLKQSEIPERISLPNIKRHKGVSISFEETSEDMVLEPRPFIFDGLNIRCFRRETIFSLKNKILNMVKESSSFKNVSRQSVSFMYFKIFNKGKVIASTKSVNIYEDKIDERLEDLCNNFDDVLKKIIDVTYGYESLFVSETYSYVIFYAKSIYFPQPRCVNNWGNNIPNILTFDSFKLFTANKNNVSCIKQCSRFLWQKDFNTLEEMIEYKNGNICIVTPQLHINDVRDIKSFNDIRLYSESPIKTFSVIDNTITYLFYFKEHLGVIFNITKSRHDRRVTKFSPLSKFSDVKNITVCFDIESYFDPEKESNQVNIPFICCASIIYNKVIGNIVDFEGRDCVAQMIEYVVDICGELNISSVELIAHNGGGYDFHYILSSMYNPAAIKNILIRNNSFISFNFAHDGVKFSVKDSYSFLLCSLANASKAFLNEETFKKTDFPHHDLKTADDLYKVYKEWSSVNTEINHVVEKEKLLITSEHIVNFTKNDKSKTLIEWSKDYCRNDVLVLSKVWLEFKNAVEDIFNCELVDQTMTLAGLSYKLFQANMPFDVELRHPNKEDYFNMREALIGGRCISVNGIYKDVLCLDVKSLYPASMAFYDQPYGSFKRVSSRPKDELGIYYVRVTPNPNNKSNFFPIRSHNKITYNNFEESTYIAWYTNVDIDIGLSEGHNIEYIPFDSYGNIGYSWSKKGKIFEKYIKDVLYKLKIKYEKQNNKVKRNVIKIIMNSLWGKFAQKWVNFEYFIKSEDDIDFESEEAYKIWDTDFMLIKKIKESTYSSKPIQNGVFTLSWARYHMKSIWDAGAKEGAECIYSDTDSIFVHKEHFKKNAKFMLNGLKVPIIGSEVGQLELECEFDKLLCAGKKQYMGFYTYFQDGKPCIKEKKRFKGIPSNYIIPELYAHLLSGADKEAKIQFLKFRREWGSVKGYIENKTVKAT,1.75

# Source: US20230242902A1, “A HIGHLY ERROR-PRONE […] R[…] FOR TARGETED CONTINUOUS EVOLUTION IN VIVO” (The Regents of the University of California, priority 2017, published 2023)
